Experimental data as given in patent US11389516B2, “Composition comprising UNE-L domain of leucyl-tRNA synthetase as effective ingredient for augmenting muscle” (GACHON UNIVERSITY OF INDUSTRY-ACADEMIC COOPERATION …, priority 2017, dated 2022).
Values belong to the molecule of their own block, whether it stands above or below them.

How the values were obtained:
[1] = system: S6K1 phosphorylation (mTORC1 activation); test: Amino acid mediated mTORC1 activation through S6K1 phosphorylation, Western blotting, HEK293 cells treated with SAR405; format: cell-based
Description: Particularly, HEK293 cells were transducted with lentivirus expressing LRS shRNA (shLRS) or scrambled sequence shRNA (control). The cells were cultured in DMEM supplemented with 10% fetal bovine serum (FBS) in a 37° C., 5% CO2 incubator for 3 days. As for the LRS shRNA, shLRS-1 (TRCN0000290440) or shLRS-2 (TRCN0000290511) was used. As for the scrambled sequence shRNA, the sRNA previously described (Yoon, et al., J Cell Biol., 2011 195(3); 435-447) was used. Lentivirus packaging and transduction were performed according to the methods described in the following paper (Sun, et al., Proc Natl Acad Sci USA., 2008, 105(24); 8286-8291). The simultaneous expression of Vps15 and Vps34 was necessary for the stability and activity of Vps34, so the cells were transfected with bicistronic Myc-Vps34/V5-Vps15 plasmid (Yan, et al., Biochem J., 2009, 417(3); 747-755), followed by culture in the absence of FBS for overnight. On the next day, the cells were cultured in DMEM without leucine or amino acid for 2 hours, followed by stimulating the cells with 0.8 mM leucine or amino acids at the same concentration as DMEM for 30 minutes. The cell lysate was analyzed by Western blotting according to the conventional method. The intensity of the bands obtained by Western blotting was quantified by measuring the X ray film image density using Image J software.
HEK293 cells were treated with SAR405 (APExBIO, US), a Vps34 specific inhibitor, and then amino acid mediated mTORC1 activation was investigated through S6K1 phosphorylation. […] Western blotting was performed by stimulating cells with amino acids by the same manner as described in Example <1-1> except that HEK293 cells were treated with SAR405 at the concentration of 3 μM and co-transfected with Myc-LRS and Myc-S6K1. At this time, the cells untreated with SAR405 were used as the control. All the quantification data was presented as mean±standard deviation of the values obtained from at least three independent experiments performed separately. Statistical significance was analyzed by student's t-test (*p≤0.05. **p≤0.01).

[2] = target: T1, Vps34 (Mus musculus, UniProt Q6PF93); test: In vitro Vps34 lipid kinase assay on Vps34 immune complex from MEF cells with added purified GST protein; format: biochemical; conditions: FIG. 7
T1 construct: endogenous in cells; host or cells: MEF cells
Description: To perform in vitro Vps34 lipid kinase assay, the Vps34 immunocomplex was washed with PBS containing 1% NP-40 three times, with PBS containing 100 mM Tris (pH 7.4) containing 500 mM LiCl three times, and with TNE buffer (10 mM Tris (pH 7.4), 100 mM NaCl and 1 mM EDTA) twice, then 2 mg/ml of […] and 10 μCi ^32P-γ-ATP (PerkinElmer) were added to TNE buffer. The reaction was terminated by adding 20 μl of 8 N HCl and lipid was extracted with 160 μl of CHCl3:MeOH (1:1). ^32P-PI(3)P was separated on a thin layer chromatography plate (EMD Chemicals Inc.) using CHCl3:MeOH:NH4OH:water (60:47:2:11.3) as a solvent, followed by measuring Vps34 activity by radiograph. The activity of Vps34 was quantified by standardizing the Vps34 amount included in the immune precipitate determined by quantification of Western blotting. To measure the amount of intracellular PI(3)P, ELISA-format assay was performed according to the manufacturer's protocol, leading to quantification of the amount of PI(3)P from nonlinear fitting of the PI(3)P standard. All quantificative data was presented as mean±standard deviation of the values obtained from at least three independent experiments performed separately. Statistical significance was analyzed by student's t-test ([…]. **p≤0.01).
Particularly, MEF cells were cultured in the absence of FBS for overnight. On the next day, the cells were cultured in leucine-free DMEM for 2 hours. Anti-Atg14L antibody was added in the cell lysate thereto, followed by immunoprecipitation to eliminate Atg14L from the cell lysate. Then, anti-Vps34 antibody was added thereto, followed by immunoprecipitation of Vps34. The Vps34 immune complex was placed in TNE buffer supplemented with 2 mg/ml of PI, 10 μCi ^32P-γ-ATP (PerkinElmer) and 3.75 μg of GST protein in the presence or absence of leucine for 20 minutes at 30° C. […] All the quantification data was presented as mean±standard deviation of the values obtained from at least three independent experiments performed separately. Statistical significance was analyzed by student's t-test (*p≤0.05. **p≤0.01).

[3] = system: S6K1 phosphorylation (mTORC1 activity); test: Western blotting of phosphorylated S6K1 in knock-down HEK293 cells with exogenous phosphatidic acid; format: cell-based; conditions: 100 μM PA, amino acid stimulation
Description: Particularly, HEK293 cells were transducted with lentivirus expressing LRS shRNA (shLRS) or scrambled sequence shRNA (control). The cells were cultured in DMEM supplemented with 10% fetal bovine serum (FBS) in a 37° C., 5% CO2 incubator for 3 days. As for the LRS shRNA, shLRS-1 (TRCN0000290440) or shLRS-2 (TRCN0000290511) was used. As for the scrambled sequence shRNA, the sRNA previously described (Yoon, et al., J Cell Biol., 2011 195(3); 435-447) was used. Lentivirus packaging and transduction were performed according to the methods described in the following paper (Sun, et al., Proc Natl Acad Sci USA., 2008, 105(24); 8286-8291). […] The cell lysate was analyzed by Western blotting according to the conventional method. The intensity of the bands obtained by Western blotting was quantified by measuring the X ray film image density using Image J software.
Particularly, HEK293 cells were transduced with shLRS, shRagD lentivirus or lentivirus expressing scrambled sequence shRNA (control), and then stimulated with amino acids by the same manner as described in Example <1-1> in the presence or absence of 100 μM phosphatidic acid (PA), a product of PLD1. Lysates of the cells were analyzed by Western blotting according to the method conventionally performed.

[4] = system: C2C12 cells; test: MHC/DAPI immunostaining of differentiated C2C12 cells (differentiation index, fusion index, myotube size); format: cell-based, mouse; conditions: given as NP-UNE-L, three days differentiation, FIG. 15
Description: Particularly, to investigate the role of the UNE-L domain of LRS, NP-UNE-L was constructed by binding the UNE-L domain of LRS to nanoparticles (NP) through the conventional method.
C2C12 cells, the mouse muscle cells, were maintained in DMEM supplemented with 4.5 g/l of glucose and 10% FBS in a 37° C., 7.5% CO2 incubator. To induce myogenesis, the cells were cultured on a plate coated with 0.2% gelatin until 100% confluence and the culture medium was replaced with the differentiation-inducing medium containing 2% horse serum. The culture medium was replaced every day for 3 days. During differentiation for three days, the differentiation-inducing medium treated group, the differentiation-inducing medium and NP-UNE-L treated group, and the differentiation-inducing medium and NP treated group were compared.
After the differentiation of C2C12 cells for three days, Western blotting was performed with the cell lysate according to the conventional method. To compare the differentiation level of C2C12 cells, C2C12 cells were fixed and immunostained with MHC, a myocyte differentiation marker, and 4′,6-diamidino-2-phenylindole (DAPI), a cell nucleus marker (Yoon et al. 2013 Molecular biology of the cell, 24(23) 3754-3763). […] The differentiation index was calculated as the percentage of nuclei in the myotubes stained with MHC and the fusion index was calculated as the percentage of nuclei in the myotubes with two or more nuclei stained with MHC. The myotube size was calculated as the number of nuclei in the myotube stained with MHC.

[5] = system: tibialis anterior (TA) muscles; test: Muscle regeneration after BaCl2 induced muscle injury, NP-UNE-L injected with BaCl2; format: in vivo, BL6 mice; conditions: given as NP-UNE-L with BaCl2 into TA, vs NP in contralateral TA, 7 days, FIG. 16
Description: Particularly, BaCl2 (prepared in saline at the concentration of 1.2% wt/vol: 50 μl) was injected into the tibialis anterior (TA) muscles of 10-week-old BL6 mice to induce muscle injury (Sun et al., 2011, J. Cell Biol. 192, 69-81). NP-UNE-L was injected with BaCl2 on the left side and NP was injected with BaCl2 on the right side. 7 days later, the mice were sacrificed and the tibialis anterior muscles were separated and placed in 2-methylbutane which was coldly prepared in liquid nitrogen, followed by embedding in TBS tissue freezing medium. Cryosection was performed at −20° C. to the thickness of 10 μm by using a cryostat (Microm HM550; Thermo Fisher Scientific). The prepared sections were placed on non-coated slides, followed by staining with hematoxylin and eosin (H&E). The stained slides were observed through a 10× dry objective lens of a microscope (DMI 4000B; Leica). The stained images were photographed with a 24-bit image camera (RETIGA EXi; Q Imaging) and the regenarating myofiber cross section area (CSA) was measured by image J. CSA was measured only in the myofibers showing the characteristics of regenerating myofiber with the nucleus in the center.

[6] = system: tibialis anterior (TA); test: Muscle regeneration after BaCl2 induced muscle injury in AAV-UNE-L injected tibialis anterior; format: in vivo, BL6 mice; conditions: expressed from AAV-UNE-L in TA, vs AAV-GFP contralateral
Description: Particularly, AAV-UNE-L was injected into the left tibialis anterior (TA) of 10-week-old BL6 mice and AAV-GFP was injected into the right tibialis anterior (TA) of 10-week-old BL6 mice, and after 7 weeks, BaCl2 (prepared in saline at the concentration of 1.2% wt/vol: 50 μl) was injected to induce muscle injury (Sun et al., 2011, J. Cell Biol. 192, 69-81). 7 days later, the mice were sacrificed and the tibialis anterior muscles were separated and fixed in 10% paraformaldehyde, followed by embedding in paraffin. The section was performed to the thickness of 10 μm, and the prepared sections were placed on non-coated slides, followed by staining with hematoxylin and eosin (H&E). The stained slides were observed through a 10× dry objective lens of a microscope (Olympus CKX3-Houn Microscope). The stained images were photographed with 24-bit image and the regenarating myofiber cross section area (CSA) was measured by image J. CSA was measured only in the myofibers showing the characteristics of regenerating myofiber with the nucleus in the center.

T1 sequence (Q6PF93 whole entry): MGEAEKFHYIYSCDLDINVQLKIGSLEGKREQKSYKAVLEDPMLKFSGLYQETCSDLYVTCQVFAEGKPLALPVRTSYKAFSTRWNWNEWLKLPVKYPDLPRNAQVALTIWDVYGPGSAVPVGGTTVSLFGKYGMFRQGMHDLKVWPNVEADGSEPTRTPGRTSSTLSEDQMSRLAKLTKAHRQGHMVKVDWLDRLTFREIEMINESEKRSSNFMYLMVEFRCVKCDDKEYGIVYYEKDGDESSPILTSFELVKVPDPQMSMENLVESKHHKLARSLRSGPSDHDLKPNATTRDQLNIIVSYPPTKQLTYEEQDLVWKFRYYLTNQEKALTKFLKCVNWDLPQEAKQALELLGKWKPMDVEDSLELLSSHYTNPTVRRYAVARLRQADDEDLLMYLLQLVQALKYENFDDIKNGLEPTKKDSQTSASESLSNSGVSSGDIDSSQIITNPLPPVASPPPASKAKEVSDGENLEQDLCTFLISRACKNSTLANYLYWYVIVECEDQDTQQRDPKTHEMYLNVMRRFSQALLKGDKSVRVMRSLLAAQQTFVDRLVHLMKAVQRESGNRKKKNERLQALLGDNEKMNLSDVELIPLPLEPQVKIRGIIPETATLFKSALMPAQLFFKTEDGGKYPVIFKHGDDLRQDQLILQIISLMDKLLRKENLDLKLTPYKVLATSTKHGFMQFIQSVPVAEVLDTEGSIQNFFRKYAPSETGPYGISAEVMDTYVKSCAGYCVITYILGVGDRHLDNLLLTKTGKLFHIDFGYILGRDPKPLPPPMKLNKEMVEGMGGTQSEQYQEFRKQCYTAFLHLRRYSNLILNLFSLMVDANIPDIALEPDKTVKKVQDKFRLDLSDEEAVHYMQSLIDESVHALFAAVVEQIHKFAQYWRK
T1 sequence (Q8VD65 whole entry partner): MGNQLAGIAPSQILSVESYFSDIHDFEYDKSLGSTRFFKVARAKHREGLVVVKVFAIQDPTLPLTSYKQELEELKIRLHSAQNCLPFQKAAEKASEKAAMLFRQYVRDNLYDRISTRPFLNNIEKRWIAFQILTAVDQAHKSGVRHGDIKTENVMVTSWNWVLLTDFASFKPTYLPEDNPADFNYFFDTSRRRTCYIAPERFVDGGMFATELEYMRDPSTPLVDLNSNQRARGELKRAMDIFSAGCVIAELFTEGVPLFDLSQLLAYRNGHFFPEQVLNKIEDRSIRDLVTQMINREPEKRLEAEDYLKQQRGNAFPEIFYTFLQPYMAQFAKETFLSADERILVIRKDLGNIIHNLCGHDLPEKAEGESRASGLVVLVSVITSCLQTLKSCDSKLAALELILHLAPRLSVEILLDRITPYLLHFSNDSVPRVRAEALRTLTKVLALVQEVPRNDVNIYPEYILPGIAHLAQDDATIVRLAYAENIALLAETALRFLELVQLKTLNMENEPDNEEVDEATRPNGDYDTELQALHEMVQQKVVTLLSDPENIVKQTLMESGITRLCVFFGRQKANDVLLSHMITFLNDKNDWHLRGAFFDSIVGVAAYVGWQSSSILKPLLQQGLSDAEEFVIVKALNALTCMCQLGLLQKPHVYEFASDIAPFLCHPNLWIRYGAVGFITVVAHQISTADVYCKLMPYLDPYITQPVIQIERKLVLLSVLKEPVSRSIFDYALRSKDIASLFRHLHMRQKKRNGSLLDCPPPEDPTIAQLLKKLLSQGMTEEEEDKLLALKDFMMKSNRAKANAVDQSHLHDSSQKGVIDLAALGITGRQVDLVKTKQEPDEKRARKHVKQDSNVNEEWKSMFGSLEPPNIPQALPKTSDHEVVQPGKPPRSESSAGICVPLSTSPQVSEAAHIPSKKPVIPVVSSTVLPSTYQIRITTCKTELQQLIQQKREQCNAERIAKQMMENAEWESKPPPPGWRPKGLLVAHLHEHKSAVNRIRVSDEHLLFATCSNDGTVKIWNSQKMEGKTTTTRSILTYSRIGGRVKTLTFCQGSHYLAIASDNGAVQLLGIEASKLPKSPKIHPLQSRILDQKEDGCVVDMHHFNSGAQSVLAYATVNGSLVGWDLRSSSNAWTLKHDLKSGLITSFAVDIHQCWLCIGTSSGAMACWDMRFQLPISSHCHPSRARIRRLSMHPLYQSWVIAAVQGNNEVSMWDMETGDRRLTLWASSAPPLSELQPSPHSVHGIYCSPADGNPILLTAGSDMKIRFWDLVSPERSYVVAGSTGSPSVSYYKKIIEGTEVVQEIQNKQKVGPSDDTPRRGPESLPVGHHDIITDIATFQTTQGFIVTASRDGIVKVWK

Molecule: C[C@@H]1COCCN1c1cc(=O)n2c(n1)N(Cc1cncc(Cl)c1)[C@H](C(F)(F)F)CC2 [SAR405]
S6K1 phosphorylation increased by LRS overexpression ([1]; HEK293 cells co-transfected with Myc-LRS and Myc-S6K1, SAR405 3 μM, FIG. 3C): reduced
S6K1 phosphorylation induced by total amino acids ([1]; HEK293 cells, FIG. 3B): reduced
concentration at which S6K1 phosphorylation was completely inhibited ([1]; HEK293 cells, tested at 0.1, 0.3, 1, 3 and 10 μM, amino acid stimulation): 3 µM

activity of Vps34 compared to the GST control ([2]; purified protein added to Vps34 immune complex): about 3 times
activity of Vps34 with leucine stimulation ([2]; purified protein added to Vps34 immune complex, in the presence of leucine): further increased
Molecule: GST-LRS protein: purified GST-LRS (leucyl-tRNA synthetase) protein expressed in E. coli BL21

activation of Vps34 ([2]; regardless of the presence or absence of leucine stimulation): did not induce the activation of Vps34
Molecule: LRS mutation (F50A/Y52A): leucine binding deficient mutant of LRS

Molecule: phosphatidic acid [PA]
amount of phosphorylated S6K1 ([3]; LRS knocked-down, FIG. 11): increased again
amount of S6K1 phosphorylated ([3]; both LRS and RagD knocked-down): partially increased

B1: UNE-L domain of LRS: UNE-L domain of leucyl-tRNA synthetase C-terminus, polypeptide of the amino acid sequence SEQ. ID. NO: 1 (protein, listed as Homo sapiens)
chain: PGVSVSLVNPQPSNGHFSTKIEIRQGDNCDSIIRRLMKMNRGIKDLSKVKLMRFDDPLLGPRRVPVLGKEYTEKTPISEHAVFNVDLMSKKIHLTENGIRVDIGDTIIYLVH
differentiation index of C2C12 cells [4]: increased
fusion index of C2C12 cells [4]: increased
myotube size [4]: increased
CSA of the muscle fibers generated during muscle regeneration [5]: increased
CSA of the muscle fibers generated during muscle regeneration ([6]; BaCl2 after 7 weeks, 7 days later, FIGS. 18A and 18B): increased
mean value of CSA ([6]; FIG. 18C): increased significantly
